Residue numbers refer to the chain shown, from its start. Names may count otherwise. Where two headings read alike, the source gives them in different places. Blank lines part the entries; values can stand above or below the binder they belong to.
How the values were obtained:
Assay in all cases: cell-based or functional assay
[1] = biological target: T1, IL-18 receptor (IL-18Rαβ) on cells (UniProt Q13478 19-541; O95256 20-599, limits assumed)
T1 sequence (looked up) 1: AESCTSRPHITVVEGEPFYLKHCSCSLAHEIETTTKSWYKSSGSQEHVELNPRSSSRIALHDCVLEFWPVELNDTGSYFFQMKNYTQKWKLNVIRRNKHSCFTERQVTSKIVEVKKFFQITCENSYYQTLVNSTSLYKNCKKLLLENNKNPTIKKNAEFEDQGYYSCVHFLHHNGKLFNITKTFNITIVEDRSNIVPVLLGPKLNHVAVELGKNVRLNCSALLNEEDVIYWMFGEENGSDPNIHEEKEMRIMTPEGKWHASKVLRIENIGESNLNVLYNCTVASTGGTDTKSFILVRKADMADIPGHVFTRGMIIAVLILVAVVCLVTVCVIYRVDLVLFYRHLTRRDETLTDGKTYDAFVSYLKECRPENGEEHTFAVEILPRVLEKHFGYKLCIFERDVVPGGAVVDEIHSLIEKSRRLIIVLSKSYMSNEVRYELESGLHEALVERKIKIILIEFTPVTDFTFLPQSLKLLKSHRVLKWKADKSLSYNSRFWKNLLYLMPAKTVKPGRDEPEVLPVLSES
T1 sequence (looked up) 2: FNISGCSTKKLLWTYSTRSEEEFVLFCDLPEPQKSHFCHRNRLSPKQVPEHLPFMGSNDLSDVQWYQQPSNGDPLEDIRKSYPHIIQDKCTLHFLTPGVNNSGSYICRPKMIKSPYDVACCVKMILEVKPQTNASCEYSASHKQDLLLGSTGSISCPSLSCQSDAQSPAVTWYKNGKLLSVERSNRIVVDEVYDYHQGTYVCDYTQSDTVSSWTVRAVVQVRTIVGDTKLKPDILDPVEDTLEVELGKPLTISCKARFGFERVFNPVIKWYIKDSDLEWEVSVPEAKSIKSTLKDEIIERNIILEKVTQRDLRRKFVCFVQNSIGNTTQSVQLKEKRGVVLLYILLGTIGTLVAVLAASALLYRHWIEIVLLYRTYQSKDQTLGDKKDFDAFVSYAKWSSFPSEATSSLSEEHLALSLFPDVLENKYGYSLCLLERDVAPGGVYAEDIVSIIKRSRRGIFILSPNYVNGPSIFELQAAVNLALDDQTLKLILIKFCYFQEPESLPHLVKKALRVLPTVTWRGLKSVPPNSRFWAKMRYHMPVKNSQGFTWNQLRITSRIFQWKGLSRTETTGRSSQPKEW

[2] = biological target: T1, IL-18 receptor (IL-18Rαβ) on cells; remark: listed apart in the source
[3] = biological target: T1, IL-18 receptor (IL-18Rαβ) on cells; remark: listed apart in the source
[4] = biological target: T1, IL-18 receptor (IL-18Rαβ) on cells; remark: listed apart in the source
[5] = biological target: T1, IL-18 receptor (IL-18Rαβ) on cells; remark: listed apart in the source

B2: C189 (C086-LinkerX-IL-18Rα D3 without glycosylation sites-His6; SEQ ID NO: 75) (ligand)
chain: YFGKLKSKLSIIRNLNDQVLFIDQGNRPLFEDMTDSDARDNAPRTIFIISMYADSQPRGMAVAISVKCEKISTLSAENKIISFKEMNPPDNIKDTKSDIIFFQRSVPGHDNKMQFESSSYEGYFLAAEKERDLFKLILKKEDELGDRSIMFTVQNESGGPGPAGMKGLPGSNIVPVLLGPKLNHVAVELGKNVRLDCSALLNEEDVIYWMFGEEDGSDPNIHEEKEMRIMTPEGKWHASKVLRIENIGESNLNVLYDCTVASTGGTDTKSFILVRKADHHHHHH
Fold potency loss vs C086 [1]: 10 fold
HEK-blue EC50 [1]: 430 pM
EC50 (read off the curve), HEK-Blue IL18R reporter [2]: ~0.4 pM

B4: C191 (C086-PLGLAG linker-IL-18Rα D3-His6; SEQ ID NO: 76) (ligand)
chain: YFGKLKSKLSIIRNLNDQVLFIDQGNRPLFEDMTDSDARDNAPRTIFIISMYADSQPRGMAVAISVKCEKISTLSAENKIISFKEMNPPDNIKDTKSDIIFFQRSVPGHDNKMQFESSSYEGYFLAAEKERDLFKLILKKEDELGDRSIMFTVQNESGGPLGLAGGSNIVPVLLGPKLNHVAVELGKNVRLNCSALLNEEDVIYWMFGEENGSDPNIHEEKEMRIMTPEGKWHASKVLRIENIGESNLNVLYNCTVASTGGTDTKSFILVRKADHHHHHH
Fold potency loss vs C086 [1]: 48 fold
HEK-blue EC50 [1]: 2020 pM
EC50 (read off the curve), HEK-Blue IL18R reporter [2]: ~2 pM

More lines, now with the values ahead:

Fold potency loss vs C086 [1]: 26 fold
HEK-blue EC50 [1]: 1090 pM
EC50 (read off the curve), HEK-Blue IL18R reporter [2]: ~1 pM
B1: C172 (C086-LinkerX-IL-18Rα D3-His6; SEQ ID NO: 73) (ligand)
chain: B2 chain with D196N, D215N, D257N

HEK-blue EC50 [1]: 40 pM
EC50 (pM), HEK-Blue IL-18R reporter assay [3]: 0.034 pM
EC50 (nM), IFNγ induction, NK-92 cells [4]: 0.026 nM
EC50 (read off the curve), HEK-Blue IL18R reporter [5]: ~0.04 pM
EC50 (read off the curve), HEK-Blue IL18R reporter [2]: ~0.04 pM
B3: C086 (SEQ ID NO: 30; E6K, V11I, C38A, K53A, T63A, C76A, C127A) (ligand)
chain: YFGKLKSKLSIIRNLNDQVLFIDQGNRPLFEDMTDSDARDNAPRTIFIISMYADSQPRGMAVAISVKCEKISTLSAENKIISFKEMNPPDNIKDTKSDIIFFQRSVPGHDNKMQFESSSYEGYFLAAEKERDLFKLILKKEDELGDRSIMFTVQNED

— US20240116997A1 (BRIGHT PEAK THERAPEUTICS, published 2024)
